Experimental data as given in article PMC4599338 (Microbial Cell Factories, 2015).

Assays:
[1] = molecular target: Staphylococcal enterotoxin B (Staphylococcus aureus, strain , UniProt P01552)
[2] = molecular target: Vaccinia Virus, Western Reserve, L1R Protein with C-Terminal Histidine Tag, Recombinant from baculovirus (Vaccinia virus, Western Reserve, UniProt P07612); assay: SPR; […] (100 to 0 nM, […], dissociation 600 s; […]; Langmuir model; […]; conditions: both partners purified

| Binder | binding result [1] | Kd [2] [nM] | koff [2] [s⁻¹] | kon [2] [M⁻¹ s⁻¹] |
| --- | --- | --- | --- | --- |
| AC (VHH) VHH: DVQLQASGGGLVQPGGSLRLTCAASGLIFGSYAMGWFRQAPGKAREFVAAISWSGGDTYADSVKGRFTISRDNAKNTVYLQMNSLEPEDTAVYSCAAVGSKYYISKDAKDYGYWGQGTQVTVSS | binds |  |  |  |
| sdAb clone L1-G2 (VHH) VHH: EVQLQASGGGLVQAGGSLRLSCTASGRAFSTTNMGWFRQAPGKEREFVTRVNWSGGVTSYADSVKGRFTLSRDNTKNTVYLQMDSLKPEDTAVYYCAGSTVWSTDRKHYNYWGQGTQVTVSS |  | 1.1 | 0.00063 | 580000 |
| sdAb clone L1-G2+neg2 (VHH) VHH: EVQLVESGGGLVQDGDSLRLSCTASGRAFSTTNMGWFRQAPGKEREFVCRVNWSGGVTSYADSVKGRFTCSADNTKNTVYLQMDSLKPEDTAVYYCAGSTVWSTDRKHYNYWGQGTQVTVSS |  | 23 | 0.013 | 540000 |
| sdAb clone L1-G2+ (VHH) VHH: EVQLQASGGGLVQAGGSLRLSCTASGRAFSTTNMGWFRQAPGKEREFVCRVNWSGGVTSYADSVKGRFTCSRDNTKNTVYLQMDSLKPEDTAVYYCAGSTVWSTDRKHYNYWGQGTQVTVSS |  | 2.4 | 0.0013 | 590000 |
| sdAb clone L1-G2+neg (VHH) VHH: EVQLVESGGGLVQDGDSLRLSCTASGRAFSTTNMGWFRQAPGKEREFVCRVNWSGGVTSYADSVKGRFTCSRDNTKNTVYLQMDSLKPEDTAVYYCAGSTVWSTDRKHYNYWGQGTQVTVSS |  | 3.3 | 0.0014 | 420000 |
